This data set in a line: soluble fraction after stress (log2 fold change); higher = more stays soluble; pooled small domains, quantitative proteomics. The settings on record: stress: 50 degC. Put shortly: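 Pooled custom libraries of small protein domains were measured in a high-throughput format, with quantitative proteomics as the read-out. Each library was stressed at 50°C. Aggregation propensity is given as the base-two logarithm of the fold change in how much of each protein stays soluble after the stress. Higher values mean a larger share of the protein remains in solution.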
“HMSEVIYVAEDNVGQRIDVFLVNKLVDASRANIQKNIVDGVILVNNKNVKANYKLRLGDVVEIRTQ”: the “soluble fraction (log2)” value worked out at 0.156.
The figure for “HMKTLLSMNIKNLRKKKNMTLEELAEKVGTSKQTIQRYESGKISNIPSDKIELLAKYLDTTPAKLMGW” is 0.441.
The figure for “HMLGSGSKEQQLVILNNILERQVQAFNLQGGQEYPMVTLKNFYNTLSKMIENAGLKNVENYFVNPDVGKQM” is -0.302.
The figure for “HMTAFEPYLVKVMASVLNIRKGPGTSYAITGQIKDKGTYTIVAESGSWGKLKSGAGWISLSYTSKAGKA” is -0.67; for “HMSDFKDIILKLRNEQGFTQEKLADVLGTSKSTVGMWEMGVRFPSKELYEAIADYFNVDIDYLYGRTDIR” it is -0.966; for “HMKDITAVISKKKGRDYYYIIVSYHLSNGKRVQKWIKTEFSVNGNNKRKLEQKRIEILQEWQNKLV” it is -0.642.
As for “HMHRGTPASIIAAAKQYLTGGQTVELYEREGGPWTFRLRTYLSETPYPEKVRASVEALKPAGVVFLYELQS”, the “soluble fraction (log2)” value was -0.207.
The figure for “HMQNREQNILDGKSILDKELKRVGLLNQSAAIMAQEMKFNSQDDLFAALGSGATRIGQIINHLQKQS” is -0.00642; for “HMEKGWYKLGQDSYYVDDDGKIHKGWLELDGKKYYFDQEGKMVTGTVNIDGKDYTFNEKGELYVS” it is 0.183.
The figure for “HMQLYSLEVLSKKKVDLIENNKNLINLYFNKENGEYSYRLIFKNRKELYQVKDTLDNSSDVVSIKLDL” is -0.863.
The figure for “HMIQIQDIAFSEFLQELDKGNIVEVNIKGDLINGDLINGKKFKTVAPYDPNLVEKLSKQNVRINVEPIN” is 0.125.
“HMTPELTAEEREVLSLLGDEPRTLAELIAASGRDYAALSVLLMGLELSQAVRQLPGNRYERF”: the “soluble fraction (log2)” value was -0.934.
The figure for “HMGIFDIIQEINRQGVTVLLIEQNANMALKIADVGYVLETGRISLTGSGRELLANEAVKKAYL” is -0.0514; for “HMSDPVKQVAMRILDLREISDYTVDKMAEVLNVPVEEYRKYESGEVDMPISFLVKIGEVFHVDMTELLTG” it is -0.219; for “HMGMYFTEMRKNEGLIALNGVAESNKRVSDLMDNLKDSSSFDAADIKAVKSGSGDASSLMDFELLVT” it is 0.113.
On to “HMTITPEVIVNHFKNLDLFFTKNGNYYEFKKKGTENILFKYGIYKQKPNIFVKIQRYPISSLSDLERIPI”, for which the “soluble fraction (log2)” value was -0.844.
The figure for “HMDHAVINSEEVTIKDLSEKIGVSAAEIIKALFTEGIIKTINDKIEYEYAQYVAGMFGVELTLKL” is 0.277; for “HMTQEMPAEVKKKADAFNNAMDEENYTEAKAILAELEQNTAPSYPLLLQMQTRYAFETASWE” it is -0.00382; for “HMKNEQESIAQKLYEAALKNDFVTIQEIQSGGYRLRNDDLTHMRESGVQSNTLIAIQKIFGL” it is 0.398.
The figure for “HMGVNNDIIKHRKLEFMIEMLPDTFTRKEANEIGEGLGISLATLTRYLSSDAFERTGHGRYRKKD” is -1.08; for “HMSELSGSQLKAIREEKHIPLEQVASATRIRLSLLEALEMDEYAELGSRTQARGFLKLYADFLGVPFEA” it is 0.0345; for “HMDSNISVSEALEMVDKGSVKEIIVEGEKLYITNQDGKQYTSSKEVGVSLIELMKDSGIDPIKSDVNIIVK” it is 0.214.
Consider “HMSSVGELEVGNIFEGTVNSVRGGKVLLALGNGQMVLAQMDGRVNITPGSSMFFQVKSNDGETVAIRPYTG”, for which the “soluble fraction (log2)” value is -0.133.
The figure for “HMTVKEVGYDTFLTMLDKKEIKQVQVEDNQIIFSDNADPVNYYKTGVFNDPDLVNRLQDAGVEFG” is 0.312.
For “HMKFPIITAKQDSDGKFYWAQTTDKGKTYTFILDGDGKKFPIGGTMPDVKINENGYWSVNGSSTGVLANDL”, the “soluble fraction (log2)” value was 0.0311.
The figure for “HMQSHIVPDVKSQHIAQAKALLESKQMKAVVIDSNFVKGLPAGIVLDQTPIGGARVKENRTIYLTINTL” is -0.557.
On to “HMEETLEELGKEYESAFTMYEKLWSYYKKQNYHQVNHKRSERYEILLGFVREYHPEKVEYYRELL”, for which the “soluble fraction (log2)” value came to 0.0169.
The figure for “HMGFDTSMNKYTIDDLLKLLELGSNPSQAEIVNKITNFNTIFVDNSGVIQFLNNIQDKLLDNFK” is -0.396; for “HMSAEDYLERIHELIESKGTAHVADIAQSLGVGKPSVTSMVQKLADEGYLNYEKYRSLTLTDSGRSIA” it is 0.105.
Take “HMTLAAATESREYLADLARRLDAADHGDKTRIKAEAAGLLGWSMATLHARLARDVGWTSGRK”: the “soluble fraction (log2)” value was -0.0944.
“HMEVPMELPRQLRANRERLGLSQEDVAHAIYVSRQTMSSWERGKTYPDVQSLMLLSHLFGISIDELVKGDV”: the “soluble fraction (log2)” value was -1.55.
The figure for “HMGVSEIGSPAWMESKLVTLASYEGSLDGLRTLWGGVAQHRARIPVESWDRLFAAKEEGKARLVKLGRT” is -1.19; for “HMDLFLVYQFIRRLATPFTEWKAHELGIIDDKGVQLKKRRDFTTREEKDAYGIFDIMITKLKRLIEKV” it is -0.255; for “HMTIERVKIKETPTGWLRVRETPDNNGSEIGRANVGEIYELLGSKGEWYHIVYKGKQGFISTKYAEKVL” it is -0.22.
The figure for “HMKKAITMGDIITVKELSEKIGIQVAEIIKKLMGLGILATINKELDYDTANVIASEFHIELERK” is -0.00712; for “HMSIEHVPGYTTLSKREQEIVHALLTRKTPEELADDLSISINTLNKHISHIYHKLGIRGRMQLFDYA” it is -0.284.
The figure for “HMDNQSIVRINDGDGAWRQRLGEHFGHLPRDRKRGEIVLQVDAADWRWLQTQGYAPRFDAALSAQLQTTL” is -0.404; for “HMDYVKTLGETINVRVAASTDADIYKLLPGGEILNRVGYNEEWTKVMVDGSTFYVYSEYVIQTEPPA” it is -1.37.
Regarding “HMNVDLLEARIPIQSHGMRLDQVVAELFPDYSRNRLAAWIKEGRLTVDGKTMKPRDRALASAHVVLEVV”, the “soluble fraction (log2)” value is -0.18.
The figure for “HMDDVGERIRKIREEKNLSLDEISKMTGFDVEFLAKIENKERQPQLGTVIKLSKALDSAFGRL” is 0.221.
In the case of “HMTIELAEGQHFLQISKSGAPMGNVVRDLIIQTLKITNGNQIKAAKILGISRAKLRYRIEQLGINITGKNI”, the “soluble fraction (log2)” value is -2.67.
On to “HMQEDSNISFVKIHVDADSGMAHKKLSKLSLPTGFLIVVIIRGEENIIPNGETEVLPGDLLVAAAREFEN”, for which the “soluble fraction (log2)” value is -0.405.
The figure for “HMANVQLAKNLKTLRKKYNYTQQDVSTFLNITRQAYSHYEQALREPDLNTLVHLSRFYQVTLDELI” is -3.8; for “HMDYPFQYFNYSHLRILGVPAQLIKAVRKAPTLDAIEQLSGLSEKTKLWLLELATEPKLEDVLFDPGR” it is -1.44; for “HMKVSDLIGMLGRVTGELAPTGIVLVGNKTWTAISEDASVIASGEQVQVRSVAGLILTVSHQVD” it is -2.15.
For “HMGYTTSFVVQLKNAVSISFDEIDQNLRKLPGVEDVVIVEEAAMAYLKVDRQHFREEQLAHFEFVRQ”, the “soluble fraction (log2)” value was -0.29.
The figure for “HMKNEYAMVIQVNGKLRGNMLVSADLEQKDIERMALDNEDIKRFISHENDVKKMIFVPKKLINIVT” is -0.351; for “HMDKKIVGVNAGKVWQALNEVTEISIVELAEKLNLSVESTALAAGWLAREDQISIERKNGTIELQRKN” it is -0.263; for “HMLNDTGAIRAAVEEVLAANEKSVNEYKGGKTQAFQYLIGQSMRALRGKAPAQEVTKLLKELLG” it is -0.263.
The figure for “HMSSSYVYGGNGEIVILSDVSKHLNVYNLNGQKVTDVNLTAGELQRISIATGIYVVGGKKIVV” is -2.92.
The figure for “HMVFSNLGSRGEEVRQIQTKLKELGYLQGNVDGIYGNQTKQAVTAFQRDHGLSADGIAGEKTLAALGIG” is 0.315; for “HMHSILDDIEGIGPARRKALMRHYMNLDAIKSATVEELAAVPSMNEKSAKAVHNFFHQQKKD” it is 0.242; for “HMGRTVKGVNFVGLRDAGDPVDLAEIYSKEGADELVFLDITATHEKRKTLLDLVTRVAERINIPFTVGGGI” it is -0.015.
Take “HMGTDIGADKAAQTALADAGLSSSQVTGLRTKQDWDDGQLRYEVEFRAGGVEYDYELAADGTILKADRDT”: the “soluble fraction (log2)” value turned out to be 0.247.
For the sequence “HMDFTHFTLKQDGKFAGSSNLLHQAVIAAARLAAETGKPVTVMAHVRGGGTRKAVFNPDGTNDKIWN”, the “soluble fraction (log2)” value is -0.61.
The figure for “HMPSQEQSDKNAAMAFLPVIVKNALNGKGLKISDDWKAAVNTALAQYPLVNKFFNADSPEVTELVMGL” is -0.0489.
The figure for “HMNADAIVGRTGVVTEAIAADGFGRVQIDGDSWKAKASGNNGIDVGAKVRVLRIDSIILTVEK” is 0.0422; for “HMDINLGIGPLVKKYRTIKGYSIRELARNINVTASMLSQIERDIVNPSINTLKAISVELGVPMYKFFM” it is -2.33.
The figure for “HMEFEYFQLRDHLYNLIMHPDKEKLKKDPDYLKLMSMAFSLLEDQNVGKDILEIAIKSIENFK” is -0.573; for “HMNTELFTKNLFNKLEVLLGEKNWKSKTAQLLNISSDAFYKKIRNESQLNLHELLLIKDTFKISIDALLDE” it is -1.24; for “HMPRSREVHVEPGMVLEDVTTGFVGAVIRTEKSAGIYVIELEDRRGRRRSFPLGGGFWLDGRPIIALPPLP” it is -1.19.
For “HMVSPEVEMLRAAVETMSERQKQVYELHYLRGFNVKETAAILGMSSPTVTAHKKRIMEIIKKFFE”, the “soluble fraction (log2)” value is -1.22.
The figure for “HMALKQADFDFIRQMIQQRAAIVLDDNKHYFVESRLGPVVEETGSKSLDQLIDQLRSSSNSLLQQKVTEAI” is -0.199; for “HMGYVQLTAREKEVLQGLVDGASYKMIAAKLDIRFGTVHTHVKNIYEKLHVNSASEAVVKAIRQRL” it is -2.46; for “HMAHPRTHEALNPLWEKYLGPNAGNDFFLSGGTSLKALMFLKDLEKTLNKRIAIHAFFKDPTYEHVVSD” it is -0.683.
The figure for “HMRPPLEWGTHGEITTRTVASGYVRASARVRLWDGELQRMTATASTASDARASLQHRIAERLRFSEL” is -1.46; for “HMVEPDELTEREREVLQFVARGLSNKEIGAALALSPHTIKAHLRSILDKLHLRSRAEAAAWAVRSGLS” it is -0.143; for “HMSSWAEGLTERERHTLMWITKGLSNKLIARELGISDSTVKVYVKNLLRKLNVNSRLELAAWVHTHPL” it is -0.906.
The figure for “HMSLSISSLVFFRKNAGLTQADIATAMSITQSAVARLEKRLLSDSDVTLKTLERYAEAVGIRMHVDFEP” is -0.0207.
